Measured values published in PMC13170675, “A Wnt-induced conformational phospho-switch in DVL3 controls association with Frizzled receptors and Wnt/β-catenin signaling” (Science Advances, 2026).

Target: the molecule itself
Experiment: native MS; native ESI-MS, 200 mM ammonium acetate buffer (pH 7.4); monomeric species are the main ones, homodimeric species detected

Protein | binding result
hDVL3 PDZ-IDR2-DEP (amino acids 243 to 496), nonphosphorylated (domain or fragment, human, UniProt Q92997 243-496, looked up, human Dishevelled 3 (DVL3), PDZ domain, IDR2 and DEP domain, amino acids 243 to 496; source: E. coli BL21 (DE3), purified (Ni-NTA, TEV cleavage, second Ni-NTA, anion exchange, SEC); not shown: His6, N-terminal, cleaved) MSLNIITVTLNMEKYNFLGISIVGQSNERGDGGIYIGSIMKGGAVAADGRIEPGDMLLQVNEINFENMSNDDAVRVLREIVHKPGPITLTVAKCWDPSPRGCFTLPRSEPIRPIDPAAWVSHTAAMTGTFPAYGMSPSLSTITSTSSSITSSIPDTERLDDFHLSIHSDMAAIVKAMASPESGLEVRDRMWLKITIPNAFIGSDVVDWLYHNVEGFTDRREARKYASNLLKAGFIRHTVNKITFSEQCYYIFGD | binds
phosphorylated hDVL3 PDZ-IDR2-DEP (amino acids 243 to 496) (domain or fragment, human, UniProt Q92997 243-496, looked up, 8 to 19 phosphates present (native ESI-MS), on S/T residues of IDR2, by CK1ε, human Dishevelled 3 (DVL3), PDZ domain, phosphorylated IDR2 and DEP domain, amino acids 243 to 496; also called PDZ-pIDR2-DEP; source: E. coli BL21 (DE3), purified; phosphorylated by CK1ε; not shown: His6, N-terminal, cleaved) MSLNIITVTLNMEKYNFLGISIVGQSNERGDGGIYIGSIMKGGAVAADGRIEPGDMLLQVNEINFENMSNDDAVRVLREIVHKPGPITLTVAKCWDPSPRGCFTLPRSEPIRPIDPAAWVSHTAAMTGTFPAYGMSPSLSTITSTSSSITSSIPDTERLDDFHLSIHSDMAAIVKAMASPESGLEVRDRMWLKITIPNAFIGSDVVDWLYHNVEGFTDRREARKYASNLLKAGFIRHTVNKITFSEQCYYIFGD | binds
